Source: PMC11912907, “RNA recognition by minimal ProQ from Neisseria meningitidis”

Key:
[1] = target: T1, ProQ (minimal ProQ, FinO domain with short N- and C-terminal extensions) (Neisseria meningitidis) (UniProt Q9JY98); experiment: EMSA; conditions: 25 mM Tris pH 7.5, 150 mM NaCl, 5% glycerol, 1 mM MgCl2, 1 nM 32P-RNA, ProQ up to 50 nM, 30 min at room temperature; 6% native gel at 4 C
T1 sequence: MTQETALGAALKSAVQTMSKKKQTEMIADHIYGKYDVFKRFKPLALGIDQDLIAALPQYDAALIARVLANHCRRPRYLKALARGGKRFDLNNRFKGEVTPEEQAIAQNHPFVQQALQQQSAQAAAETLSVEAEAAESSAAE

[2] = target: T2, ProQ (minimal ProQ, FinO domain with short N- and C-terminal extensions) (Neisseria meningitidis, UniProt Q9JY98 1-141); experiment: EMSA; max bound 80%; 25 mM Tris pH 7.5, 150 mM NaCl, 5% glycerol, 1 mM MgCl2, 1 nM 32P-RNA, ProQ up to 50 nM, 30 min at room temperature; 6% native gel at 4 C; conditions: protein: recombinant; tags: N-terminal His6-TEV, cleaved; one extra N-terminal Ser remains; label: 5'-32P; hairpin, GAAA loop
T2 sequence: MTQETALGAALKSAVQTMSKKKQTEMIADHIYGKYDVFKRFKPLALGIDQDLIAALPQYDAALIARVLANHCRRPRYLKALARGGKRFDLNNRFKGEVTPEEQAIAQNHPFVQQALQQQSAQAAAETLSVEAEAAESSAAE

[3] = target: T2, ProQ (minimal ProQ, FinO domain with …); experiment: EMSA; max bound 86%; 25 mM Tris pH 7.5, 150 mM NaCl, 5% glycerol, 1 mM MgCl2, 1 nM 32P-RNA, ProQ up to 50 nM, 30 min at room temperature; 6% native gel at 4 C; conditions: protein: recombinant; tags: N-terminal His6-TEV, cleaved; one extra N-terminal Ser remains; label: 5'-32P
[4] = target: T2, ProQ (minimal ProQ, FinO domain with …); experiment: EMSA; max bound 53%; Hill fit; 25 mM Tris pH 7.5, 150 mM NaCl, 5% glycerol, 1 mM MgCl2, 1 nM 32P-RNA, ProQ up to 50 nM, 30 min at room temperature; 6% native gel at 4 C; conditions: protein: recombinant; tags: N-terminal His6-TEV, cleaved; one extra N-terminal Ser remains; label: 5'-32P; terminator hairpin, GAAA loop
[5] = target: T2, ProQ (minimal ProQ, FinO domain with …); experiment: EMSA; max bound 90%; 25 mM Tris pH 7.5, 150 mM NaCl, 5% glycerol, 1 mM MgCl2, 1 nM 32P-RNA, ProQ up to 50 nM, 30 min at room temperature; 6% native gel at 4 C; conditions: protein: recombinant; tags: N-terminal His6-TEV, cleaved; one extra N-terminal Ser remains; label: 5'-32P; terminator hairpin, 5-U tail
[6] = target: T2, ProQ (minimal ProQ, FinO domain with …); experiment: EMSA; max bound 91%; 25 mM Tris pH 7.5, 150 mM NaCl, 5% glycerol, 1 mM MgCl2, 1 nM 32P-RNA, ProQ up to 50 nM, 30 min at room temperature; 6% native gel at 4 C; conditions: protein: recombinant; tags: N-terminal His6-TEV, cleaved; one extra N-terminal Ser remains; label: 5'-32P; hairpin, GAAA loop
[7] = target: T2, ProQ (minimal ProQ, FinO domain with …); experiment: EMSA; max bound 66%; estimated, not accurately fit; 25 mM Tris pH 7.5, 150 mM NaCl, 5% glycerol, 1 mM MgCl2, 1 nM 32P-RNA, ProQ up to 50 nM, 30 min at room temperature; 6% native gel at 4 C; conditions: protein: recombinant; tags: N-terminal His6-TEV, cleaved; one extra N-terminal Ser remains; label: 5'-32P; terminator hairpin, 7 nt 3' tail
[8] = target: T2, ProQ (minimal ProQ, FinO domain with …); experiment: EMSA; undetected up to 50 nM ProQ; 25 mM Tris pH 7.5, 150 mM NaCl, 5% glycerol, 1 mM MgCl2, 1 nM 32P-RNA, ProQ up to 50 nM, 30 min at room temperature; 6% native gel at 4 C; conditions: protein: recombinant; tags: N-terminal His6-TEV, cleaved; one extra N-terminal Ser remains; label: 5'-32P; terminator hairpin, no tail
[9] = target: T2, ProQ (minimal ProQ, FinO domain with …); experiment: EMSA; max bound 88%; 25 mM Tris pH 7.5, 150 mM NaCl, 5% glycerol, 1 mM MgCl2, 1 nM 32P-RNA, ProQ up to 50 nM, 30 min at room temperature; 6% native gel at 4 C; conditions: protein: recombinant, tags: N-terminal His6-TEV, cleaved, one extra N-terminal Ser remains, label: 5'-32P, terminator hairpin
[10] = target: T2, ProQ (minimal ProQ, FinO domain with …); experiment: EMSA; max bound 81%; 25 mM Tris pH 7.5, 150 mM NaCl, 5% glycerol, 1 mM MgCl2, 1 nM 32P-RNA, ProQ up to 50 nM, 30 min at room temperature; 6% native gel at 4 C; conditions: protein: recombinant; tags: N-terminal His6-TEV, cleaved; one extra N-terminal Ser remains; label: 5'-32P; terminator hairpin, GAAA loop
[11] = target: T2, ProQ (minimal ProQ, FinO domain with …); experiment: EMSA; max bound 89%; 25 mM Tris pH 7.5, 150 mM NaCl, 5% glycerol, 1 mM MgCl2, 1 nM 32P-RNA, ProQ up to 50 nM, 30 min at room temperature; 6% native gel at 4 C; conditions: protein: recombinant, tags: N-terminal His6-TEV, cleaved, one extra N-terminal Ser remains, label: 5'-32P, terminator hairpin
[12] = target: T2, ProQ (minimal ProQ, FinO domain with …); experiment: EMSA; max bound 79%; 25 mM Tris pH 7.5, 150 mM NaCl, 5% glycerol, 1 mM MgCl2, 1 nM 32P-RNA, ProQ up to 50 nM, 30 min at room temperature; 6% native gel at 4 C; conditions: protein: recombinant; tags: N-terminal His6-TEV, cleaved; one extra N-terminal Ser remains; label: 5'-32P; terminator hairpin, 6-U tail
[13] = target: T2, ProQ (minimal ProQ, FinO domain with …); experiment: EMSA; max bound 85%; 25 mM Tris pH 7.5, 150 mM NaCl, 5% glycerol, 1 mM MgCl2, 1 nM 32P-RNA, ProQ up to 50 nM, 30 min at room temperature; 6% native gel at 4 C; conditions: protein: recombinant; tags: N-terminal His6-TEV, cleaved; one extra N-terminal Ser remains; label: 5'-32P; terminator hairpin, 5-U tail
[14] = target: T2, ProQ (minimal ProQ, FinO domain with …); experiment: EMSA; max bound 53%; 25 mM Tris pH 7.5, 150 mM NaCl, 5% glycerol, 1 mM MgCl2, 1 nM 32P-RNA, ProQ up to 50 nM, 30 min at room temperature; 6% native gel at 4 C; conditions: protein: recombinant; tags: N-terminal His6-TEV, cleaved; one extra N-terminal Ser remains; label: 5'-32P; terminator hairpin, 4-U tail
[15] = target: T2, ProQ (minimal ProQ, FinO domain with …); experiment: EMSA; max bound 64%; 25 mM Tris pH 7.5, 150 mM NaCl, 5% glycerol, 1 mM MgCl2, 1 nM 32P-RNA, ProQ up to 50 nM, 30 min at room temperature; 6% native gel at 4 C; conditions: protein: recombinant; tags: N-terminal His6-TEV, cleaved; one extra N-terminal Ser remains; label: 5'-32P; hairpin, GAAA loop
[16] = target: T2, ProQ (minimal ProQ, FinO domain with …); experiment: EMSA; max bound 58%; 25 mM Tris pH 7.5, 150 mM NaCl, 5% glycerol, 1 mM MgCl2, 1 nM 32P-RNA, ProQ up to 50 nM, 30 min at room temperature; 6% native gel at 4 C; conditions: protein: recombinant; tags: N-terminal His6-TEV, cleaved; one extra N-terminal Ser remains; label: 5'-32P; terminator hairpin, 4-U tail

pnp-5' was tested, and the Kd [1] was 7.9 nM.

Work on carA-5' yielded a Kd [1] of 1.3 nM.

iga-3' gave a Kd [1] of 0.3 nM.

GGGAUUUCAGUUUGAAAGCAAAGCCUGAAAAGGCUUUUUU (structured_RNA) [rpmG-loop-40] showed a Kd [2] of 1.2 ± 1.5 nM.

B1: intergenic (structured_RNA)
RNA: GGUAAUGCCGAAAGGGGUUUGACGAUGCCGGCGUGCGCUGUCAAACCCUUUUUCU
For B1, the Kd [3] was 1.4 ± 1 nM.

B2: AniS-loop (structured_RNA)
RNA: GGUUUCCUCUUGAUGUGUGUGUUUGGGUGUGGCGAAAGCCACCCCUUUUUUUU
For B2, the Kd [4] was 0.39 ± 0.18 nM.

With GGUUUCCUCUUGAUGUGUGUGUUUGGGUGUGGCUGCCGCCACCCCUUUUU (structured_RNA) [AniS-U5] the Kd [5] was 6.5 ± 1.3 nM.

With GGGAUUUCAGUUUGAAAGCAAAGCCUCCGAAAGGAGGCUUUUUU (structured_RNA) [rpmG-loop-44] the Kd [6] was 4 ± 2 nM.

GGGAUUUCAGUUUGAAAGCAAAGCCUCCGACUGUUCGGAGGCUUUUUUA (structured_RNA) [rpmG-U6A] was tested, and the Kd [7] was < 0.5 nM.

GGUUUCCUCUUGAUGUGUGUGUUUGGGUGUGGCUGCCGCCACCCC (structured_RNA) [AniS-noU]: no binding [8].

B3: AniS-U7 (structured_RNA)
RNA: GGUUUCCUCUUGAUGUGUGUGUUUGGGUGUGGCUGCCGCCACCCCUUUUUUU
B3 was tested, and the Kd ([9]; 7-U tail) was 0.82 ± 0.21 nM.

In the case of GGGAUUUCAGUUUGAAAGCAAAGCCUCCGAGAAAUCGGAGGCUUUUUU (structured_RNA) [rpmG-loop], the Kd [10] is reported as 0.5 ± 0.34 nM.

GGGAUUUCAGUUUGAAAGCAAAGCCUCCGACUGUUCGGAGGCUUUUUU (structured_RNA) [rpmG-3'] was tested, and the Kd ([11]; 6-U 3' tail, 3 U paired with upstream A) was 1 ± 0.52 nM.

B4: AniS-U6 (structured_RNA)
RNA: GGUUUCCUCUUGAUGUGUGUGUUUGGGUGUGGCUGCCGCCACCCCUUUUUU
With B4 the Kd [12] was 0.7 ± 0.62 nM.

Work on GGGAUUUCAGUUUGAAAGCAAAGCCUCCGACUGUUCGGAGGCUUUUU (structured_RNA) [rpmG-U5] yielded a Kd [13] of 0.47 ± 0.27 nM.

B5: rpmG-U6AU2 (structured_RNA)
RNA: GGGAUUUCAGUUUGAAAGCAAAGCCUCCGACUGUUCGGAGGCUUUUUUAUU
Work on B5 yielded a Kd ([9]; 9 nt 3' tail) of 0.22 ± 0.26 nM.

GGGAUUUCAGUUUGAAAGCAAAGCCUCCGACUGUUCGGAGGCUUUUUUAU (structured_RNA) [rpmG-U6AU] gave a Kd ([11]; 8 nt 3' tail) of 0.2 ± 0.23 nM.

Work on GGUUUCCUCUUGAUGUGUGUGUUUGGGUGUGGCUGCCGCCACCCCUUUU (structured_RNA) [AniS-U4] yielded a Kd [14] of 0.9 ± 0.58 nM.

With GGGAUUUCAGUUUGAAAGCAAAGCGAAAGCUUUUUU (structured_RNA) [rpmG-loop-36] the Kd [15] was 0.13 ± 0.14 nM.

GGGAUUUCAGUUUGAAAGCAAAGCCUCCGACUGUUCGGAGGCUUUU (structured_RNA) [rpmG-U4] gave a Kd [16] of 2.6 ± 3.5 nM.
